Source: patent US20260250331A1 (INTERNATIONAL AIDS VACCINE INITIATIVE, published 2026)
Positions count from the first letter of the chain named.

How the values were obtained:
BG505 MD39 trimer [1] = biological target: BG505 MD39 trimer (HIV-1 BG505); assay: ELISA on BG505-MD39, mAb titrated from about 0.001 to 50 µg/mL
BG505 MD39 trimer [2] = biological target: BG505 MD39 trimer (HIV-1 BG505); assay: ELISA on BG505-MD39, BG18 as mAb titrated from about 0.001 to 50 µg/mL
[3] = biological target: BG505 MD39 N332-GT2 trimer (HIV-1 BG505); assay: SPR, Fab and N332-GT2 trimer
N332-GT2 NP (ferritin) = N332-GT2 NP (ferritin) (HIV-1 BG505 Env fused to Helicobacter …); assay: SPR; NP captured as ligand with PGT128 IgG, Fab flowed as analyte
[4] = biological target: BG505 MD39 N332-GT2 trimer (HIV-1 BG505); assay: SPR
gp120-17mutE = assay: SPR
gp120-17mutE K137/H325 = assay: SPR
gp120-17mutE K137/P325 = assay: SPR
[5] = biological target: gp120-17mutE K137/M141/P325; assay: SPR
[6] = biological target: gp120-17mutE K137/R139/M141/P325; assay: SPR
[7] = biological target: BG505 MD39 N332-GT2 trimer (HIV-1 BG505); assay: SPR; reference 11mutB trimer
[8] = biological target: BG505 MD39 N332-GT2 trimer (HIV-1 BG505); assay: SPR; KD scatter plot

B1: BG18.6H BG18.11L (antibody, V domains shown)
VH: QVQLQESGPGLVKPSGTLSLTCAVSGDSRPSDHSWSWVRQPPGKGLEWIGEIYYSGSTNYNPSLKSRVTISVDKSKNQFSLKLSSVTAADTAVYYCARNAIRIYGVVALGEWFHYGMDVWGQGTTVTVSS
VL: SYELTQPPSVSVSPGQTARITCSGDALPSRYAYWYQQKPGQAPVLVISRDSQRSSGISGRFSGSWSGTTVTLTISGVQAEDEADYYCQSSDSSDTYKVFGGGTKLTVL
notes: also called less mutated variant of BG18
EC50 (read off the curve) (BG505 MD39 trimer [1]): ~0.05 µg/mL

B2: BG18 Fab (Fab, V domains shown)
VH: QVQLRESGPGLVKPSETLSLSCTVSNDSRPSDHSWTWVRQSPGKALEWIGDIHYNGATTYNPSLRSRVRIELDQSIPRFSLKMTSMTAADTGMYYCARNAIRIYGVVALGEWFHYGMDVWGQGTAVTVSS
VL: SSELTQPPSVSVSPGQTARITCSGAPLTSRFTYWYRQKPGQAPVLIISRSSQRSSGWSGRFSASWSGTTVTLTIRGVQADDEADYYCQSSDTSDSYKMFGGGTKLTVL
notes: also called mature BG18; 354BG18
EC50 (read off the curve) (BG505 MD39 trimer [2]): ~0.02 µg/mL

B3: BG18 iGL0 Fab (Fab, V domains shown)
VH: QVQLQESGPGLVKPSGTLSLTCAVSGGSISSSNWWSWVRQPPGKGLEWIGEIYHSGSTNYNPSLKSRVTISVDKSKNQFSLKLSSVTAADTAVYYCARNAITIFGVVIIGEYYYYGMDVWGQGTTVTVSS
VL: not shown
Kd [3]: 4 nM | Kd (N332-GT2 NP (ferritin)): 3 nM

B4: BG18 iGL1 with alternate germline VL gene VL3-19 (antibody, V domains shown)
VH: B3 VH with I109L
VL: SSELTQDPAVSVALGQTVRITCQGDSLRSYYASWYQQKPGQAPVLVIYGKNNRPSGIPDRFSGSSSGNTASLTITGAQAEDEADYYCNSRDSSGNHWVFGGGTKLTVL
binding result [4]: binds

B5: BG18 iGL1 (antibody, V domains shown)
VH: B3 VH with I109L
VL: not shown
Kd [4]: 0.213 nM | Kd (gp120-17mutE): ~14000 nM | Kd (gp120-17mutE K137/H325): 5.9 nM | Kd (gp120-17mutE K137/P325): 11 nM | Kd [5]: 2.5 nM | Kd [6]: 0.5 nM | fold improvement over 11mutB [7]: ~130000 fold

B6: BG18 iGL1 with alternate germline VL gene VL3-1 (antibody, V domains shown)
VH: B3 VH with I109L
VL: not shown
binding result [4]: binds

B7: BG18 iGL1 with alternate germline VL gene VL2-8 (antibody, V domains shown)
VH: B3 VH with I109L
VL: QSALTQPPSASGSPGQSVTISCTGTSSDVGGYNYVSWYQQHPGKAPKLMIYEVSKRPSGVPDRFSGSKSGNTASLTVSGLQAEDEADYYCSSYAGSNNFWVFGGGTKLTVL
binding result [4]: binds

B8: pre4 (antibody, V domains shown)
VH: B3 VH with N99E, A100R, I101D, I108S, I109L, G110R, E111V
VL: not shown
binding result [8]: no binding (tested: 100 µM)

B9: pre14 (antibody, V domains shown)
VH: B3 VH with N99G, A100R, I108T, I109L, G110R, E111G
VL: not shown
notes: also called NGS pre14; NGS Pre14
Kd [3]: 136 nM | Kd (N332-GT2 NP (ferritin)): 94 nM

B10: pre13 (antibody, V domains shown)
VH: B3 VH with R98K, N99A, A100L, I101N, I108T, I109L, G110T, E111Q
VL: not shown
binding result [8]: no binding (tested: 100 µM)

B11: BG18 iGL1 with alternate germline VL gene VL3-10 (antibody, V domains shown)
VH: B3 VH with I109L
VL: SYELTQPPSVSVSPGQTARITCSGDALPKKYAYWYQQKSGQAPVLVIYKDSKRPSGIPERFSGSSSGTMATLTISGAQVEDEDDYYCYSADYSGNHWVFGGGTKLTVL
binding result [4]: binds

B12: pre15 (antibody, V domains shown)
VH: B3 VH with N99D, A100I, I101H, T102N, I103S, I108S, I109L, G110D, E111Q, Y112N
VL: not shown
binding result [8]: no binding (tested: 100 µM)
